Measurements from publication PMC4051505, “Crystal structure of human CRMP-4: correction of intensities for lattice-translocation disorder” (Acta Crystallographica Section D: Biological Crystallography, 2014).

Legend:
[1] = target: the molecule itself; test: crystal structure; CRMP-4 ΔC (13-490), space group P21; 30%(w/v) PEG 3350, 100 mM sodium tartrate, 100 mM bis-tris propane pH 6.5; protein 18 mg/ml; data at 100 K
[2] = target: the molecule itself; test: crystal structure; CRMP-4 (1-570) crystal form A, space group P21, twinned; 15%(w/v) PEG 6000, 100 mM Na HEPES pH 7.5, 100 mM KCl; protein 15 mg/ml; data at 100 K

Protein	stoichiometry N [1]	stoichiometry N [2]
truncated human CRMP-4 (CRMP-4 ΔC), residues 13-490 (domain or fragment, CRMP-4 (DPYSL3), human, residues 13-490 of NP_001378.1; The His tag was removed with TEV protease; A serine from the TEV cleavage site is visible in chains C and D of the structure; Judging from the primer, Ser-Met probably remains before residue 13; Tetramer in the crystal, lower oligomers in solution; also called CRMP-4 ΔC (13-490); source: E. coli BL21(DE3)pLysS, purified (Ni-NTA, TEV …)) not shown	4	
human CRMP-4 (collapsin response mediator protein 4), full-length, residues 1-570 (natural protein, CRMP-4 (DPYSL3), human, residues 1-570 of NP_001378.1; only residues 12-496/497 (crystal form A) or 12-499 (form B) are resolved in the electron density; The vector pNIC28-Bsa4 extends the coding region by 23 N-terminal residues (hexahistidine tag and TEV site); The tag was deliberately not cleaved for the full-length protein; Homotetramer in both crystal forms and in solution; also called …) not shown		4
